Ends that are not written are not given here. * marks the point of attachment. Stearoyl = CCCCCCCCCCCCCCCCCC(=O)*; Palmitoyl = CCCCCCCCCCCCCCCC(=O)*; Myristoyl = CCCCCCCCCCCCCC(=O)*; Lauroyl = CCCCCCCCCCCC(=O)*; Dodecyl = CCCCCCCCCCCC*
Target: T1, human GIP receptor (human, UniProt P48546 22-466)
T1 sequence (looked up): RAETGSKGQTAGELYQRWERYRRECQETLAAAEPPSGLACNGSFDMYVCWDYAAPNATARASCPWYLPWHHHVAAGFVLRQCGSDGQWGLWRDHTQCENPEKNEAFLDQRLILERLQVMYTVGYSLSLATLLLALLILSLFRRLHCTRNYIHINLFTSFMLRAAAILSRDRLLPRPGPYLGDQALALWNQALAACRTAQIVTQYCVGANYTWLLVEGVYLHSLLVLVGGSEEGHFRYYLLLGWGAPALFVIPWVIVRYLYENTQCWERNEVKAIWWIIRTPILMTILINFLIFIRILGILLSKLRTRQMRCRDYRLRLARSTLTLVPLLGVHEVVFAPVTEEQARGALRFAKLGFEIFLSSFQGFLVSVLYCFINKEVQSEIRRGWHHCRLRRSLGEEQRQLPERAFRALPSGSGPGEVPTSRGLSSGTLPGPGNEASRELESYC
Test: cell-based or functional assay

EGTFISDYSIAMEKIAQQDFVNWLLAQK(Dodecyl)-NH2 [AT130 [hGIP(3-30)NH2[D15E; H18A]-C12/30]] was tested, and the “cAMP agonism, EC50 (log)” value was -5.1 log M, the “cAMP agonism, Emax” value was 49% and the “cAMP agonism, nM (EC50)” value was 8690 nM.

With EGTFISDYSIAMDKIHQQDFVNWLLAQK(Stearoyl)-NH2 [AT115 [hGIP(3-30)NH2-C18/30]] the “cAMP agonism, EC50 (log)” value was -6.9 log M and the “cAMP agonism, nM (EC50)” value was 134 nM.

Stearoyl-EGTFISDYSIAMDKIHQQDFVNWLLAQK-NH2 [AT113 [hGIP(3-30)NH2-C18/3]] was tested, and the “cAMP agonism, EC50 (log)” value was -8 log M, the “cAMP agonism, Emax” value was 77% and the “cAMP agonism, nM (EC50)” value was 9.9 nM.

B1: AT116 [hGIP(3-30)NH2-C12/18] (peptide)
peptide: EGTFISDYSIAMDKIK(Lauroyl)QQDFVNWLLAQK-NH2
modifications: N-terminus assumed
SMILES: CCCCCCCCCCCC(=O)NCCCC[C@H](NC(=O)[C@@H](NC(=O)[C@H](CCCCN)NC(=O)[C@H](CC(=O)O)NC(=O)[C@H](CCSC)NC(=O)[C@H](C)NC(=O)[C@@H](NC(=O)[C@H](CO)NC(=O)[C@H](Cc1ccc(O)cc1)NC(=O)[C@H](CC(=O)O)NC(=O)[C@H](CO)NC(=O)[C@@H](NC(=O)[C@H](Cc1ccccc1)NC(=O)[C@@H](NC(=O)CNC(=O)[C@@H](N)CCC(=O)O)[C@@H](C)O)[C@@H](C)CC)[C@@H](C)CC)[C@@H](C)CC)C(=O)N[C@@H](CCC(N)=O)C(=O)N[C@@H](CCC(N)=O)C(=O)N[C@@H](CC(=O)O)C(=O)N[C@@H](Cc1ccccc1)C(=O)N[C@H](C(=O)N[C@@H](CC(N)=O)C(=O)N[C@@H](Cc1c[nH]c2ccccc12)C(=O)N[C@@H](CC(C)C)C(=O)N[C@@H](CC(C)C)C(=O)N[C@@H](C)C(=O)N[C@@H](CCC(N)=O)C(=O)N[C@@H](CCCCN)C(N)=O)C(C)C
In the case of B1, the “cAMP agonism, Emax” value is reported as 0%, the “cAMP antagonism, log (IC50)” value is reported as -7.9 log M and the “cAMP antagonism, nM (IC50)” value is reported as 12 nM.

For EGTFISDYSIAMDKIHQQDFVNWLLAQK(Palmitoyl)-NH2 [AT106 [hGIP(3-30)NH2-C16/30]], the “cAMP agonism, EC50 (log)” value was -6.4 log M, the “cAMP agonism, Emax” value was 64% and the “cAMP agonism, nM (EC50)” value was 390 nM.

B2: AT131 [hGIP(3-30)NH2[D15E; H18A]-C16/16] (peptide)
peptide: EGTFISDYSIAMEK(Palmitoyl)IAQQDFVNWLLAQK-NH2
modifications: N-terminus assumed
SMILES: CCCCCCCCCCCCCCCC(=O)NCCCC[C@H](NC(=O)[C@H](CCC(=O)O)NC(=O)[C@H](CCSC)NC(=O)[C@H](C)NC(=O)[C@@H](NC(=O)[C@H](CO)NC(=O)[C@H](Cc1ccc(O)cc1)NC(=O)[C@H](CC(=O)O)NC(=O)[C@H](CO)NC(=O)[C@@H](NC(=O)[C@H](Cc1ccccc1)NC(=O)[C@@H](NC(=O)CNC(=O)[C@@H](N)CCC(=O)O)[C@@H](C)O)[C@@H](C)CC)[C@@H](C)CC)C(=O)N[C@H](C(=O)N[C@@H](C)C(=O)N[C@@H](CCC(N)=O)C(=O)N[C@@H](CCC(N)=O)C(=O)N[C@@H](CC(=O)O)C(=O)N[C@@H](Cc1ccccc1)C(=O)N[C@H](C(=O)N[C@@H](CC(N)=O)C(=O)N[C@@H](Cc1c[nH]c2ccccc12)C(=O)N[C@@H](CC(C)C)C(=O)N[C@@H](CC(C)C)C(=O)N[C@@H](C)C(=O)N[C@@H](CCC(N)=O)C(=O)N[C@@H](CCCCN)C(N)=O)C(C)C)[C@@H](C)CC
B2 was tested, and the “cAMP agonism, EC50 (log)” value was -4.9 log M, the “cAMP agonism, Emax” value was 35% and the “cAMP agonism, nM (EC50)” value was 11800 nM. The “cAMP antagonism, log (IC50)” value was -7.4 log M and the “cAMP antagonism, nM (IC50)” value was 65 nM.

In the case of EGTFISDYSIAMDK(Myristoyl)IHQQDFVNWLLAQK-NH2 [AT111 [hGIP(3-30)NH2-C14/16]], the “cAMP agonism, Emax” value is reported as 0%, the “cAMP antagonism, log (IC50)” value is reported as -7.6 log M and the “cAMP antagonism, nM (IC50)” value is reported as 22 nM.

With EGTFISDYSIAMDK(Palmitoyl)IHQQDFVNWLLAQK-NH2 [AT105 [hGIP(3-30)NH2-C16/16]] the “cAMP agonism, EC50 (log)” value was -5.9 log M, the “cAMP agonism, Emax” value was 34% and the “cAMP agonism, nM (EC50)” value was 1140 nM. For the same binder, the “cAMP antagonism, log (IC50)” value was -7.6 log M and the “cAMP antagonism, nM (IC50)” value was 24 nM.

B3: AT117 [hGIP(3-30)NH2[H18K]-C16/18] (peptide)
peptide: EGTFISDYSIAMDKIK(Palmitoyl)QQDFVNWLLAQK-NH2
modifications: N-terminus assumed
SMILES: CCCCCCCCCCCCCCCC(=O)NCCCC[C@H](NC(=O)[C@@H](NC(=O)[C@H](CCCCN)NC(=O)[C@H](CC(=O)O)NC(=O)[C@H](CCSC)NC(=O)[C@H](C)NC(=O)[C@@H](NC(=O)[C@H](CO)NC(=O)[C@H](Cc1ccc(O)cc1)NC(=O)[C@H](CC(=O)O)NC(=O)[C@H](CO)NC(=O)[C@@H](NC(=O)[C@H](Cc1ccccc1)NC(=O)[C@@H](NC(=O)CNC(=O)[C@@H](N)CCC(=O)O)[C@@H](C)O)[C@@H](C)CC)[C@@H](C)CC)[C@@H](C)CC)C(=O)N[C@@H](CCC(N)=O)C(=O)N[C@@H](CCC(N)=O)C(=O)N[C@@H](CC(=O)O)C(=O)N[C@@H](Cc1ccccc1)C(=O)N[C@H](C(=O)N[C@@H](CC(N)=O)C(=O)N[C@@H](Cc1c[nH]c2ccccc12)C(=O)N[C@@H](CC(C)C)C(=O)N[C@@H](CC(C)C)C(=O)N[C@@H](C)C(=O)N[C@@H](CCC(N)=O)C(=O)N[C@@H](CCCCN)C(N)=O)C(C)C
B3 was tested, and the “cAMP agonism, Emax” value was 0%, the “cAMP antagonism, log (IC50)” value was -7.8 log M and the “cAMP antagonism, nM (IC50)” value was 15 nM.

B4: AT107 [hGIP(3-30)NH2[T5W; D15E; H18A]-C16/16] (peptide)
peptide: EGWFISDYSIAMEK(Palmitoyl)IAQQDFVNWLLAQK-NH2
modifications: N-terminus assumed
SMILES: CCCCCCCCCCCCCCCC(=O)NCCCC[C@H](NC(=O)[C@H](CCC(=O)O)NC(=O)[C@H](CCSC)NC(=O)[C@H](C)NC(=O)[C@@H](NC(=O)[C@H](CO)NC(=O)[C@H](Cc1ccc(O)cc1)NC(=O)[C@H](CC(=O)O)NC(=O)[C@H](CO)NC(=O)[C@@H](NC(=O)[C@H](Cc1ccccc1)NC(=O)[C@H](Cc1c[nH]c2ccccc12)NC(=O)CNC(=O)[C@@H](N)CCC(=O)O)[C@@H](C)CC)[C@@H](C)CC)C(=O)N[C@H](C(=O)N[C@@H](C)C(=O)N[C@@H](CCC(N)=O)C(=O)N[C@@H](CCC(N)=O)C(=O)N[C@@H](CC(=O)O)C(=O)N[C@@H](Cc1ccccc1)C(=O)N[C@H](C(=O)N[C@@H](CC(N)=O)C(=O)N[C@@H](Cc1c[nH]c2ccccc12)C(=O)N[C@@H](CC(C)C)C(=O)N[C@@H](CC(C)C)C(=O)N[C@@H](C)C(=O)N[C@@H](CCC(N)=O)C(=O)N[C@@H](CCCCN)C(N)=O)C(C)C)[C@@H](C)CC
With B4 the “cAMP agonism, EC50 (log)” value was -5.9 log M, the “cAMP agonism, Emax” value was 23% and the “cAMP agonism, nM (EC50)” value was 1300 nM. For the same binder, the “cAMP antagonism, log (IC50)” value was -7.1 log M and the “cAMP antagonism, nM (IC50)” value was 77 nM.

B5: AT144 [hGIP(3-30)NH2[K16R; H18K; K30R]-C16/18] (peptide)
peptide: EGTFISDYSIAMDRIK(Palmitoyl)QQDFVNWLLAQR-NH2
modifications: N-terminus assumed
SMILES: CCCCCCCCCCCCCCCC(=O)NCCCC[C@H](NC(=O)[C@@H](NC(=O)[C@H](CCCNC(=N)N)NC(=O)[C@H](CC(=O)O)NC(=O)[C@H](CCSC)NC(=O)[C@H](C)NC(=O)[C@@H](NC(=O)[C@H](CO)NC(=O)[C@H](Cc1ccc(O)cc1)NC(=O)[C@H](CC(=O)O)NC(=O)[C@H](CO)NC(=O)[C@@H](NC(=O)[C@H](Cc1ccccc1)NC(=O)[C@@H](NC(=O)CNC(=O)[C@@H](N)CCC(=O)O)[C@@H](C)O)[C@@H](C)CC)[C@@H](C)CC)[C@@H](C)CC)C(=O)N[C@@H](CCC(N)=O)C(=O)N[C@@H](CCC(N)=O)C(=O)N[C@@H](CC(=O)O)C(=O)N[C@@H](Cc1ccccc1)C(=O)N[C@H](C(=O)N[C@@H](CC(N)=O)C(=O)N[C@@H](Cc1c[nH]c2ccccc12)C(=O)N[C@@H](CC(C)C)C(=O)N[C@@H](CC(C)C)C(=O)N[C@@H](C)C(=O)N[C@@H](CCC(N)=O)C(=O)N[C@@H](CCCNC(=N)N)C(N)=O)C(C)C
With B5 the “cAMP agonism, Emax” value was 0%, the “cAMP antagonism, log (IC50)” value was -7.3 log M and the “cAMP antagonism, nM (IC50)” value was 53.3 nM.

With EGTFISDYSIAMDK(Stearoyl)IHQQDFVNWLLAQK-NH2 [AT114 [hGIP(3-30)NH2-C18/16]] the “cAMP agonism, EC50 (log)” value was -5.5 log M, the “cAMP agonism, Emax” value was 39% and the “cAMP agonism, nM (EC50)” value was 2960 nM. For the same binder, the “cAMP antagonism, log (IC50)” value was -7.2 log M and the “cAMP antagonism, nM (IC50)” value was 46 nM.

B6: AT143 [hGIP(3-30)NH2[M14L; H18K]-C16/18] (peptide)
peptide: EGTFISDYSIALDKIK(Palmitoyl)QQDFVNWLLAQK-NH2
modifications: N-terminus assumed
SMILES: CCCCCCCCCCCCCCCC(=O)NCCCC[C@H](NC(=O)[C@@H](NC(=O)[C@H](CCCCN)NC(=O)[C@H](CC(=O)O)NC(=O)[C@H](CC(C)C)NC(=O)[C@H](C)NC(=O)[C@@H](NC(=O)[C@H](CO)NC(=O)[C@H](Cc1ccc(O)cc1)NC(=O)[C@H](CC(=O)O)NC(=O)[C@H](CO)NC(=O)[C@@H](NC(=O)[C@H](Cc1ccccc1)NC(=O)[C@@H](NC(=O)CNC(=O)[C@@H](N)CCC(=O)O)[C@@H](C)O)[C@@H](C)CC)[C@@H](C)CC)[C@@H](C)CC)C(=O)N[C@@H](CCC(N)=O)C(=O)N[C@@H](CCC(N)=O)C(=O)N[C@@H](CC(=O)O)C(=O)N[C@@H](Cc1ccccc1)C(=O)N[C@H](C(=O)N[C@@H](CC(N)=O)C(=O)N[C@@H](Cc1c[nH]c2ccccc12)C(=O)N[C@@H](CC(C)C)C(=O)N[C@@H](CC(C)C)C(=O)N[C@@H](C)C(=O)N[C@@H](CCC(N)=O)C(=O)N[C@@H](CCCCN)C(N)=O)C(C)C
In the case of B6, the “cAMP agonism, EC50 (log)” value is reported as -6.3 log M, the “cAMP agonism, Emax” value is reported as 40% and the “cAMP agonism, nM (EC50)” value is reported as 521 nM. The “cAMP antagonism, log (IC50)” value was -7.8 log M and the “cAMP antagonism, nM (IC50)” value was 15.1 nM.

EGTFISDYSIAMDKIHQQDFVNWLLAQK(Myristoyl)-NH2 [AT112 [hGIP(3-30)NH2-C14/30]] was tested, and the “cAMP agonism, EC50 (log)” value was -5.4 log M, the “cAMP agonism, Emax” value was 29% and the “cAMP agonism, nM (EC50)” value was 3950 nM.

Myristoyl-EGTFISDYSIAMDKIHQQDFVNWLLAQK-NH2 [AT110 [hGIP(3-30)NH2-C14/3]] was tested, and the “cAMP agonism, EC50 (log)” value was -8.4 log M, the “cAMP agonism, Emax” value was 64% and the “cAMP agonism, nM (EC50)” value was 3.6 nM.
